Results published in the RNAGym collection of RNA variant scans (doi:10.1021/acssynbio.7b00057).

B1: Pistol ribozyme (parent)
chain: GGGUCGUUGUUCCAUAAUCGCGUGGAUAUGGCACGCAAGUUUCUACCGGGCACCGUAAAUGUCCGACUGGAGCCGUUCGGGCGGCUAUAAACAGACCUCAGGCCCGAAGCGUGGCGGCACCUGCCGCCGGUGGUAAAAAAGAUCGGAAGAGCACACGUCU

Variants of: B1
Test: aptazyme ON/OFF ratio, guanine; higher = stronger switching; co-transcriptional cleavage with and without guanine

| Variant | aptazyme ON/OFF ratio |
| --- | --- |
| U7G U8A G9U U11A C12A C13U | 1.15 |
| U7G U8A G9U U11A C12A C13G | 1.11 |
| U7G U8A G9U U11A C12A C13A | 1.16 |
| U7G U8A G9U U10G U11G C12G C13U | 1.05 |
| U7G U8A G9U U10G U11G C12G C13A | 1.15 |
| U7G U8A G9U U10G U11G C12G C13G | 1.24 |
| U7G U8A G9U U10C U11A C12U | 1.11 |
| U7G U8A G9U U10C U11A C12G | 1.13 |
| U7G U8A G9U U10C U11A C12A | 1.12 |
| U7G U8A U10C C12A C13G | 1.27 |
| U7G U8A U10C C12A C13U | 1.34 |
| U7G U8A U10C C12A C13A | 1.39 |
| U7G U8A G9U U10G U11G C13A | 1.3 |
| U7G U8A G9U U10G U11G C13G | 1.17 |
| U7G U8A G9U U10G U11G C13U | 1.18 |
| U7G U8A U10C U11A C12G C13G | 1.22 |
| U7G U8A U10C U11A C12G C13U | 1.38 |
| U7G U8A U10C U11A C12G C13A | 1.25 |
| U7G U8A G9U U11C C13G | 1.05 |
| U7G U8A G9U U11C C13U | 1.09 |
| U7G U8A G9U U11C C13A | 1.1 |
| U7G U8A G9U U10G U11C C12U | 1.05 |
| U7G U8A G9U U10G U11C C12A | 1.14 |
| U7G U8A G9U U10G U11C C12G | 1.1 |

| Variant | aptazyme ON/OFF ratio |
| --- | --- |
| U7G U8A G9U U11G C12U C13A | 1.1 |
| U7G U8A G9U U11G C12U C13U | 1.15 |
| U7G U8A G9U U11G C12U C13G | 1.04 |
| U7G U8A G9U U10G U11G C12G | 1.29 |
| U7G U8A G9U U10G U11G C12A | 1.24 |
| U7G U8A G9U U10G U11G C12U | 1.15 |
| U7G U8A U10A C12G C13G | 1.22 |
| U7G U8A U10A C12G C13U | 1.47 |
| U7G U8A U10A C12G C13A | 1.23 |
| U7G U8A G9U U11A C12U C13G | 1.07 |
| U7G U8A G9U U11A C12U C13U | 1.07 |
| U7G U8A G9U U11A C12U C13A | 1.02 |
| U7G U8A G9U U10C U11A | 1.41 |
| U7G U8A G9U U10C U11G | 1.24 |
| U7G U8A G9U U10C U11C | 1.06 |
| U7G U8A G9U U11C C12A | 1.16 |
| U7G U8A G9U U11C C12G | 1.11 |
| U7G U8A G9U U11C C12U | 1.19 |
| U7G U8A G9U U10G U11A C12A C13A | 1.12 |
| U7G U8A G9U U10G U11A C12A C13U | 1.07 |
| U7G U8A G9U U10G U11A C12A C13G | 1.07 |
| U7G U8A G9U U10G C12A C13U | 1.08 |
| U7G U8A G9U U10G C12A C13G | 1.03 |
| U7G U8A G9U U10G C12A C13A | 1.11 |

| Variant | aptazyme ON/OFF ratio |
| --- | --- |
| U7G U8A G9U U10C U11G C12U C13A | 1.09 |
| U7G U8A G9U U10C U11G C12U C13U | 1.19 |
| U7G U8A G9U U10C U11G C12U C13G | 1.07 |
| U7G U8A G9U U10A U11G C12G C13A | 1.13 |
| U7G U8A G9U U10A U11G C12G C13U | 1.08 |
| U7G U8A G9U U10A U11G C12G C13G | 1.15 |
| U7G U8A U10A C12U | 1.18 |
| U7G U8A U10A C12G | 1.3 |
| U7G U8A U10A C12A | 1.26 |
| U7G U8A U10A U11G C12U C13A | 1.38 |
| U7G U8A U10A U11G C12U C13G | 1.14 |
| U7G U8A U10A U11G C12U C13U | 1.71 |
| U7G U8A U10C C12U C13U | 1.32 |
| U7G U8A U10C C12U C13G | 1.26 |
| U7G U8A U10C C12U C13A | 1.24 |
| U7G U8A U10A U11A C12G C13A | 1.14 |
| U7G U8A U10A U11A C12G C13U | 1.46 |
| U7G U8A U10A U11A C12G C13G | 1.2 |
| U7G U8A U10A U11A C13U | 1.21 |
| U7G U8A U10A U11A C13A | 1.2 |
| U7G U8A U10A U11A C13G | 1.15 |
| U7G U8A U10C U11G C12G C13G | 1.11 |
| U7G U8A U10C U11G C12G C13A | 1.26 |
| U7G U8A U10C U11G C12G C13U | 1.05 |

| Variant | aptazyme ON/OFF ratio |
| --- | --- |
| U7G U8A G9U U10G C12G | 1.07 |
| U7G U8A G9U U10G C12U | 1.13 |
| U7G U8A G9U U10G C12A | 1.09 |
| U7G U8A U10A U11G C12G C13U | 1.3 |
| U7G U8A U10A U11G C12G C13G | 1.11 |
| U7G U8A U10A U11G C12G C13A | 1.26 |
| U7G U8A U10C U11A C13A | 1.39 |
| U7G U8A U10C U11A C13U | 1.44 |
| U7G U8A U10C U11A C13G | 1.23 |
| U7G U8A G9U U10G U11C C12U C13G | 1.17 |
| U7G U8A G9U U10G U11C C12U C13A | 1.07 |
| U7G U8A G9U U10G U11C C12U C13U | 1.08 |
| U7G U8A G9U U10C U11C C12A | 1.09 |
| U7G U8A G9U U10C U11C C12G | 1.08 |
| U7G U8A G9U U10C U11C C12U | 1.06 |
| U7G U8A U10C U11C C12G C13G | 1.06 |
| U7G U8A U10C U11C C12G C13U | 1.3 |
| U7G U8A U10C U11C C12G C13A | 1.32 |
| U7G U8A U10A C12U C13U | 1.09 |
| U7G U8A U10A C12U C13A | 1.24 |
| U7G U8A U10A C12U C13G | 1.28 |
| U7G U8A U10C C12U | 2.18 |
| U7G U8A U10C C12A | 1.5 |
| U7G U8A U10C C12G | 1.46 |

| Variant | aptazyme ON/OFF ratio |
| --- | --- |
| U7G U8A G9U U10C C12A C13G | 1.12 |
| U7G U8A G9U U10C C12A C13U | 1.15 |
| U7G U8A G9U U10C C12A C13A | 1.12 |
| U7G U8A U10A U11C C12G C13U | 1.18 |
| U7G U8A U10A U11C C12G C13G | 1.07 |
| U7G U8A U10A U11C C12G C13A | 1.28 |
| U7G U8A U10A U11G C13U | 1.38 |
| U7G U8A U10A U11G C13G | 1.36 |
| U7G U8A U10A U11G C13A | 1.23 |
| U7G U8A U10C U11G C12A | 1.27 |
| U7G U8A U10C U11G C12G | 1.49 |
| U7G U8A U10C U11G C12U | 1.32 |
| U7G U8A U10A U11A C12A C13U | 1.08 |
| U7G U8A U10A U11A C12A C13A | 1.21 |
| U7G U8A U10A U11A C12A C13G | 1.18 |
| U7G U8A U10C U11C C12A C13U | 1.23 |
| U7G U8A U10C U11C C12A C13G | 1.16 |
| U7G U8A U10C U11C C12A C13A | 1.2 |
| U7G U8A U10C U11G C12U C13G | 1.29 |
| U7G U8A U10C U11G C12U C13A | 1.2 |
| U7G U8A U10C U11G C12U C13U | 1.42 |
| U7G U8A U10A U11C C13G | 1.06 |
| U7G U8A U10A U11C C13A | 1.03 |
| U7G U8A U10A U11C C13U | 1 |

| Variant | aptazyme ON/OFF ratio |
| --- | --- |
| U7G U8A G9U U11C C12U C13A | 1.1 |
| U7G U8A G9U U11C C12U C13U | 1.02 |
| U7G U8A G9U U11C C12U C13G | 1.15 |
| U7G U8A G9U U10C U11C C12A C13G | 1.23 |
| U7G U8A G9U U10C U11C C12A C13A | 1.09 |
| U7G U8A G9U U10C U11C C12A C13U | 1.09 |
| U7G U8A U10A U11G C12A C13A | 1.17 |
| U7G U8A U10A U11G C12A C13G | 1.19 |
| U7G U8A U10A U11G C12A C13U | 1.17 |
| U7G U8A G9U U10A U11G C12G | 1.08 |
| U7G U8A G9U U10A U11G C12A | 1.06 |
| U7G U8A G9U U10A U11G C12U | 1.16 |
| U7G U8A G9U U11G C12G C13U | 1.06 |
| U7G U8A G9U U11G C12G C13A | 1.01 |
| U7G U8A G9U U11G C12G C13G | 1.03 |
| U7G U8A G9U U10C U11A C12U C13U | 1.06 |
| U7G U8A G9U U10C U11A C12U C13A | 1.05 |
| U7G U8A G9U U10C U11A C12U C13G | 1.09 |
| U7G U8A U10C U11C C13A | 1.05 |
| U7G U8A U10C U11C C13G | 1.05 |
| U7G U8A U10C U11C C13U | 1.01 |
| U7G U8A U10A U11C | 0.988 |
| U7G U8A U10A U11G | 2.46 |
| U7G U8A U10A U11A | 2.2 |

| Variant | aptazyme ON/OFF ratio |
| --- | --- |
| U7G U8A G9U U10C U11C C13G | 1.02 |
| U7G U8A G9U U10C U11C C13A | 1.03 |
| U7G U8A G9U U10C U11C C13U | 1.01 |
| U7G U8A U10A C13G | 1.44 |
| U7G U8A U10A C13A | 1.2 |
| U7G U8A U10A C13U | 1.25 |
| U7G U8A G9U U10C C12G C13A | 1.28 |
| U7G U8A G9U U10C C12G C13G | 1.29 |
| U7G U8A G9U U10C C12G C13U | 1.19 |
| U7G U8A U10C U11A C12A | 1.32 |
| U7G U8A U10C U11A C12G | 1.54 |
| U7G U8A U10C U11A C12U | 1.42 |
| U7G U8A G9U U10C U11A C13G | 1.05 |
| U7G U8A G9U U10C U11A C13A | 1.1 |
| U7G U8A G9U U10C U11A C13U | 1.08 |
| U7G U8A U10C U11C C12G | 1.29 |
| U7G U8A U10C U11C C12U | 1.31 |
| U7G U8A U10C U11C C12A | 1.46 |
| U7G U8A U10G C12G C13A | 1.25 |
| U7G U8A U10G C12G C13G | 1.18 |
| U7G U8A U10G C12G C13U | 1.27 |
| U7G U8A G9U U11A C12U | 1.17 |
| U7G U8A G9U U11A C12A | 1.14 |
